B1: F304R: TP-DNAP1 variant (protein)
chain: MDYKDKALNDLRNVYADFDSLPLDFRQILIKDRATLLQKEDVEKKILERQEDAKKYAEYLKQSEIPERISLPNIKRHKGVSISFEETSEDMVLEPRPFIFDGLNIRCFRRETIFSLKNKILNMVKESSSFKNVSRQSVSFMYFKIFNKGKVIASTKSVNIYEDKIDERLEDLCNNFDDVLKKIIDVTYGYESLFVSETYSYVIFYAKSIYFPQPRCVNNWGNNIPNILTFDSFKLFTANKNNVSCIKQCSRFLWQKDFNTLEEMIEYKNGNICIVTPQLHINDVRDIKSFNDIRLYSESPIKTRSVIDNTITYLFYFKEHLGVIFNITKSRHDRRVTKFSPLSKFSDVKNITVCFDIESYFDPEKESNQVNIPFICCASIIYNKVIGNIVDFEGRDCVAQMIEYVVDICGELNISSVELIAHNGGGYDFHYILSSMYNPAAIKNILIRNNSFISFNFAHDGVKFSVKDSYSFLLCSLANASKAFLNEETFKKTDFPHHDLKTADDLYKVYKEWSSVNTEINHVVEKEKLLITSEHIVNFTKNDKSKTLIEWSKDYCRNDVLVLSKVWLEFKNAVEDIFNCELVDQTMTLAGLSYKLFQANMPFDVELRHPNKEDYFNMREALIGGRCISVNGIYKDVLCLDVKSLYPASMAFYDQPYGSFKRVSSRPKDELGIYYVRVTPNRNNKSNFFPIRSHNKITYNNFEESTYIAWYTNVDIDIGLSEGHNIEYIPFDSYGNIGYSWSKKGKIFEKYIKDVLYKLKIKYEKQNNKVKRNVIKIIMNSLWGKFAQKWVNFEYFIKSEDDIDFESEEAYKIWDTDFMLIKKIKESTYSSKPIQNGVFTLSWARYHMKSIWDAGAKEGAECIYSDTDSIFVHKEHFKKNAKFMLNGLKVPIIGSEVGQLELECEFDKLLCAGKKQYMGFYTYFQDGKPCIKEKKRFKGIPSNYIIPELYAHLLSGADKEAKIQFLKFRREWGSVKGYIENKTVKAT
B2: F304Y: TP-DNAP1 variant (protein)
chain: MDYKDKALNDLRNVYADFDSLPLDFRQILIKDRATLLQKEDVEKKILERQEDAKKYAEYLKQSEIPERISLPNIKRHKGVSISFEETSEDMVLEPRPFIFDGLNIRCFRRETIFSLKNKILNMVKESSSFKNVSRQSVSFMYFKIFNKGKVIASTKSVNIYEDKIDERLEDLCNNFDDVLKKIIDVTYGYESLFVSETYSYVIFYAKSIYFPQPRCVNNWGNNIPNILTFDSFKLFTANKNNVSCIKQCSRFLWQKDFNTLEEMIEYKNGNICIVTPQLHINDVRDIKSFNDIRLYSESPIKTYSVIDNTITYLFYFKEHLGVIFNITKSRHDRRVTKFSPLSKFSDVKNITVCFDIESYFDPEKESNQVNIPFICCASIIYNKVIGNIVDFEGRDCVAQMIEYVVDICGELNISSVELIAHNGGGYDFHYILSSMYNPAAIKNILIRNNSFISFNFAHDGVKFSVKDSYSFLLCSLANASKAFLNEETFKKTDFPHHDLKTADDLYKVYKEWSSVNTEINHVVEKEKLLITSEHIVNFTKNDKSKTLIEWSKDYCRNDVLVLSKVWLEFKNAVEDIFNCELVDQTMTLAGLSYKLFQANMPFDVELRHPNKEDYFNMREALIGGRCISVNGIYKDVLCLDVKSLYPASMAFYDQPYGSFKRVSSRPKDELGIYYVRVTPNRNNKSNFFPIRSHNKITYNNFEESTYIAWYTNVDIDIGLSEGHNIEYIPFDSYGNIGYSWSKKGKIFEKYIKDVLYKLKIKYEKQNNKVKRNVIKIIMNSLWGKFAQKWVNFEYFIKSEDDIDFESEEAYKIWDTDFMLIKKIKESTYSSKPIQNGVFTLSWARYHMKSIWDAGAKEGAECIYSDTDSIFVHKEHFKKNAKFMLNGLKVPIIGSEVGQLELECEFDKLLCAGKKQYMGFYTYFQDGKPCIKEKKRFKGIPSNYIIPELYAHLLSGADKEAKIQFLKFRREWGSVKGYIENKTVKAT
B3: I307L: TP-DNAP1 variant (protein)
chain: MDYKDKALNDLRNVYADFDSLPLDFRQILIKDRATLLQKEDVEKKILERQEDAKKYAEYLKQSEIPERISLPNIKRHKGVSISFEETSEDMVLEPRPFIFDGLNIRCFRRETIFSLKNKILNMVKESSSFKNVSRQSVSFMYFKIFNKGKVIASTKSVNIYEDKIDERLEDLCNNFDDVLKKIIDVTYGYESLFVSETYSYVIFYAKSIYFPQPRCVNNWGNNIPNILTFDSFKLFTANKNNVSCIKQCSRFLWQKDFNTLEEMIEYKNGNICIVTPQLHINDVRDIKSFNDIRLYSESPIKTFSVLDNTITYLFYFKEHLGVIFNITKSRHDRRVTKFSPLSKFSDVKNITVCFDIESYFDPEKESNQVNIPFICCASIIYNKVIGNIVDFEGRDCVAQMIEYVVDICGELNISSVELIAHNGGGYDFHYILSSMYNPAAIKNILIRNNSFISFNFAHDGVKFSVKDSYSFLLCSLANASKAFLNEETFKKTDFPHHDLKTADDLYKVYKEWSSVNTEINHVVEKEKLLITSEHIVNFTKNDKSKTLIEWSKDYCRNDVLVLSKVWLEFKNAVEDIFNCELVDQTMTLAGLSYKLFQANMPFDVELRHPNKEDYFNMREALIGGRCISVNGIYKDVLCLDVKSLYPASMAFYDQPYGSFKRVSSRPKDELGIYYVRVTPNRNNKSNFFPIRSHNKITYNNFEESTYIAWYTNVDIDIGLSEGHNIEYIPFDSYGNIGYSWSKKGKIFEKYIKDVLYKLKIKYEKQNNKVKRNVIKIIMNSLWGKFAQKWVNFEYFIKSEDDIDFESEEAYKIWDTDFMLIKKIKESTYSSKPIQNGVFTLSWARYHMKSIWDAGAKEGAECIYSDTDSIFVHKEHFKKNAKFMLNGLKVPIIGSEVGQLELECEFDKLLCAGKKQYMGFYTYFQDGKPCIKEKKRFKGIPSNYIIPELYAHLLSGADKEAKIQFLKFRREWGSVKGYIENKTVKAT
B4: S305N: TP-DNAP1 variant (protein)
chain: MDYKDKALNDLRNVYADFDSLPLDFRQILIKDRATLLQKEDVEKKILERQEDAKKYAEYLKQSEIPERISLPNIKRHKGVSISFEETSEDMVLEPRPFIFDGLNIRCFRRETIFSLKNKILNMVKESSSFKNVSRQSVSFMYFKIFNKGKVIASTKSVNIYEDKIDERLEDLCNNFDDVLKKIIDVTYGYESLFVSETYSYVIFYAKSIYFPQPRCVNNWGNNIPNILTFDSFKLFTANKNNVSCIKQCSRFLWQKDFNTLEEMIEYKNGNICIVTPQLHINDVRDIKSFNDIRLYSESPIKTFNVIDNTITYLFYFKEHLGVIFNITKSRHDRRVTKFSPLSKFSDVKNITVCFDIESYFDPEKESNQVNIPFICCASIIYNKVIGNIVDFEGRDCVAQMIEYVVDICGELNISSVELIAHNGGGYDFHYILSSMYNPAAIKNILIRNNSFISFNFAHDGVKFSVKDSYSFLLCSLANASKAFLNEETFKKTDFPHHDLKTADDLYKVYKEWSSVNTEINHVVEKEKLLITSEHIVNFTKNDKSKTLIEWSKDYCRNDVLVLSKVWLEFKNAVEDIFNCELVDQTMTLAGLSYKLFQANMPFDVELRHPNKEDYFNMREALIGGRCISVNGIYKDVLCLDVKSLYPASMAFYDQPYGSFKRVSSRPKDELGIYYVRVTPNRNNKSNFFPIRSHNKITYNNFEESTYIAWYTNVDIDIGLSEGHNIEYIPFDSYGNIGYSWSKKGKIFEKYIKDVLYKLKIKYEKQNNKVKRNVIKIIMNSLWGKFAQKWVNFEYFIKSEDDIDFESEEAYKIWDTDFMLIKKIKESTYSSKPIQNGVFTLSWARYHMKSIWDAGAKEGAECIYSDTDSIFVHKEHFKKNAKFMLNGLKVPIIGSEVGQLELECEFDKLLCAGKKQYMGFYTYFQDGKPCIKEKKRFKGIPSNYIIPELYAHLLSGADKEAKIQFLKFRREWGSVKGYIENKTVKAT
B5: S305G: TP-DNAP1 variant (protein)
chain: MDYKDKALNDLRNVYADFDSLPLDFRQILIKDRATLLQKEDVEKKILERQEDAKKYAEYLKQSEIPERISLPNIKRHKGVSISFEETSEDMVLEPRPFIFDGLNIRCFRRETIFSLKNKILNMVKESSSFKNVSRQSVSFMYFKIFNKGKVIASTKSVNIYEDKIDERLEDLCNNFDDVLKKIIDVTYGYESLFVSETYSYVIFYAKSIYFPQPRCVNNWGNNIPNILTFDSFKLFTANKNNVSCIKQCSRFLWQKDFNTLEEMIEYKNGNICIVTPQLHINDVRDIKSFNDIRLYSESPIKTFGVIDNTITYLFYFKEHLGVIFNITKSRHDRRVTKFSPLSKFSDVKNITVCFDIESYFDPEKESNQVNIPFICCASIIYNKVIGNIVDFEGRDCVAQMIEYVVDICGELNISSVELIAHNGGGYDFHYILSSMYNPAAIKNILIRNNSFISFNFAHDGVKFSVKDSYSFLLCSLANASKAFLNEETFKKTDFPHHDLKTADDLYKVYKEWSSVNTEINHVVEKEKLLITSEHIVNFTKNDKSKTLIEWSKDYCRNDVLVLSKVWLEFKNAVEDIFNCELVDQTMTLAGLSYKLFQANMPFDVELRHPNKEDYFNMREALIGGRCISVNGIYKDVLCLDVKSLYPASMAFYDQPYGSFKRVSSRPKDELGIYYVRVTPNRNNKSNFFPIRSHNKITYNNFEESTYIAWYTNVDIDIGLSEGHNIEYIPFDSYGNIGYSWSKKGKIFEKYIKDVLYKLKIKYEKQNNKVKRNVIKIIMNSLWGKFAQKWVNFEYFIKSEDDIDFESEEAYKIWDTDFMLIKKIKESTYSSKPIQNGVFTLSWARYHMKSIWDAGAKEGAECIYSDTDSIFVHKEHFKKNAKFMLNGLKVPIIGSEVGQLELECEFDKLLCAGKKQYMGFYTYFQDGKPCIKEKKRFKGIPSNYIIPELYAHLLSGADKEAKIQFLKFRREWGSVKGYIENKTVKAT
B6: D308Q: TP-DNAP1 variant (protein)
chain: MDYKDKALNDLRNVYADFDSLPLDFRQILIKDRATLLQKEDVEKKILERQEDAKKYAEYLKQSEIPERISLPNIKRHKGVSISFEETSEDMVLEPRPFIFDGLNIRCFRRETIFSLKNKILNMVKESSSFKNVSRQSVSFMYFKIFNKGKVIASTKSVNIYEDKIDERLEDLCNNFDDVLKKIIDVTYGYESLFVSETYSYVIFYAKSIYFPQPRCVNNWGNNIPNILTFDSFKLFTANKNNVSCIKQCSRFLWQKDFNTLEEMIEYKNGNICIVTPQLHINDVRDIKSFNDIRLYSESPIKTFSVIQNTITYLFYFKEHLGVIFNITKSRHDRRVTKFSPLSKFSDVKNITVCFDIESYFDPEKESNQVNIPFICCASIIYNKVIGNIVDFEGRDCVAQMIEYVVDICGELNISSVELIAHNGGGYDFHYILSSMYNPAAIKNILIRNNSFISFNFAHDGVKFSVKDSYSFLLCSLANASKAFLNEETFKKTDFPHHDLKTADDLYKVYKEWSSVNTEINHVVEKEKLLITSEHIVNFTKNDKSKTLIEWSKDYCRNDVLVLSKVWLEFKNAVEDIFNCELVDQTMTLAGLSYKLFQANMPFDVELRHPNKEDYFNMREALIGGRCISVNGIYKDVLCLDVKSLYPASMAFYDQPYGSFKRVSSRPKDELGIYYVRVTPNRNNKSNFFPIRSHNKITYNNFEESTYIAWYTNVDIDIGLSEGHNIEYIPFDSYGNIGYSWSKKGKIFEKYIKDVLYKLKIKYEKQNNKVKRNVIKIIMNSLWGKFAQKWVNFEYFIKSEDDIDFESEEAYKIWDTDFMLIKKIKESTYSSKPIQNGVFTLSWARYHMKSIWDAGAKEGAECIYSDTDSIFVHKEHFKKNAKFMLNGLKVPIIGSEVGQLELECEFDKLLCAGKKQYMGFYTYFQDGKPCIKEKKRFKGIPSNYIIPELYAHLLSGADKEAKIQFLKFRREWGSVKGYIENKTVKAT

Test system: p1
Assay: p1 copy number by p1-encoded mKate2 fluorescence
Type: cell-based, S. cerevisiae
Details: OR-Y24, measured in triplicate
Method in brief: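 Yeast OR-Y24 strains carrying TP-DNAP1 variants were grown to saturation from a 1:10,000 dilution, and p1-encoded mKate2 fluorescence was measured by flow cytometry (ex/em 561/620 nm). Values were converted to copy number via a linear calibration against qPCR of p1-encoded LEU2 versus genomic LEU3, or by plate-reader OD600-normalized fluorescence relative to w.t. TP-DNAP1.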

In order of rising “Mean fold-increase over w.t. (p1 copy number)” value:
1. B6  2.15 fold
2. B4  2.3 fold
3. B2  2.41 fold
4. B5  2.53 fold
5. B3  2.76 fold
6. B1  3.49 fold
